Measurements as given in patent US20210340215A1 (published 2021).
Values belong to the binder of their own block, whether it stands above or below them.

Key:
[1] = target: T1, KRAS G12V peptide on HLA-A*11:01 (human); experiment: multimer staining
T1 peptide: VVGAVGVGK
Description: (§1) Neoantigen specific T cells were detected by combining HLA-multimer staining with 2 different fluorochrome conjugated recombinant HLA (HLA-A02.01, HLA-A03.01, or HLA-A11.01) multimer with neoantigen peptides. Anti-CD8, anti-CD4, anti-CD19, anti-CD16, anti-CD14, anti-CD56 and antibodies and Live/Dead IR dye (Invitrogen) were used for cell surface staining. CD8⁺ T cells were identified as CD8⁺CD4⁻CD19⁻CD16⁻CD14⁻CD56⁻IR⁻ (FIGS. 1, 2, 4A, 5, 6A, 8F, 8G, 9, 10A, 10B, 11, 13, 15, 16A and 16B). For sorting, up to 5×10⁶ cells were incubated with 1-20 μg multimer in 100 μL PBS+0.5% human serum. Antibodies and Live/Dead IR dye were used to stain the cells for an additional 30 min. After staining, cells were washed twice and diluted in PBS+0.5% human serum. Live/Dead IR dye-negative cells were gated and CD8⁺/multimer⁺ T cells were sorted on a FACSAria cell sorter (BD Biosciences).

[2] = target: T2, GATA3 neoORF (frameshift; CSNH) peptide on HLA-A*02:01 (human); experiment: multimer staining
T2 peptide: MLTGPPARV
Description: as §1

[3] = target: T3, GATA3 neoORF (frameshift; CSNH) peptide on HLA-B*08:01 (human); experiment: cytokine release
T3 peptide: ESKIMFATL

[4] = target: T4, TMPRSS2:ERG gene fusion peptide on HLA-A*02:01 (human); experiment: multimer staining
T4 peptide: ALNSEALSV
Description: as §1

[5] = target: T5, BTK C481S peptide on HLA-A*02:01 (human); experiment: multimer staining
T5 peptide: SLLNYLREM
Description: as §1

B1: RAS TCR-26 (TCR, V domains shown)
Valpha: DQQVKQNSPSLSVQEGRISILNCDYTNSMFDYFLWYKKYPAEGPTFLISISSIKDKNEDGRFTVFLNKSAKHLSLHIVPSQPGDSAVYFCAANAGGTSYGKLTFGQGTILTVHP
Vbeta: EPEVTQTPSHQVTQMGQEVILRCVPISNHLYFYWYRQILGQKVEFLVSFYNNEISEKSEIFDDQFSVERPDGSNFTLKIRSTKLEDSAMYFCASSEWGSTGELFFGEGSRLTVL
- binding result [1]: recognises

B2: RAS TCR-27 (TCR, V domains shown)
Valpha: ELKVEQNPLFLSMQEGKNYTIYCNYSTTSDRLYWYRQDPGKSLESLFVLLSNGAVKQEGRLMASLDTKARLSTLHITAAVHDLSATYFCAVDIIGGKSTFGDGTTLTVKP
Vbeta: EPEVTQTPSHQVTQMGQEVILRCVPISNHLYFYWYRQILGQKVEFLVSFYNNEISEKSEIFDDQFSVERPDGSNFTLKIRSTKLEDSAMYFCASSEWGSTGELFFGEGSRLTVL
- binding result [1]: recognises

B3: RAS TCR-28 (TCR, V domains shown)
Valpha: DQQVKQNSPSLSVQEGRISILNCDYTNSMFDYFLWYKKYPAEGPTFLISISSIKDKNEDGRFTVFLNKSAKHLSLHIVPSQPGDSAVYFCAASAVGQEYGNKLVFGAGTILRVKS
Vbeta: DTGVSQNPRHKITKRGQNVTFRCDPISEHNRLYWYRQTLGQGPEFLTYFQNEAQLEKSRLLSDRFSAERPKGSFSTLEIQRTEQGDSAMYLCASSEYTMGTQYFGPGTRLLVL
- binding result [1]: recognises

B4: GATA3 TCR-1 (TCR, V domains shown)
Valpha: SQKIEQNSEALNIQEGKTATLTCNYTNYSPAYLQWYRQDPGRGPVFLLLIRENEKEKRKERLKVTFDTTLKQSLFHITASQPADSATYLCALDIYGNNRLAFGKGNQVVVIP
Vbeta: DVKVTQSSRYLVKRTGEKVFLECVQDMDHENMFWYRQDPGLGLRLIYFSYDVKMKEKGDIPEGYSVSREKKERFSLILESASTNQTSMYLCASSLDFVLAGSYSYNEQFFGPGTRLTVL
- binding result [2]: recognises

B5: GATA3 TCR-3 (TCR, V domains shown)
Valpha: AQSVSQHNHHVILSEAASLELGCNYSYGGTVNLFWYVQYPGQHLQLLLKYFSGDPLVKGIKGFEAEFIKSKFSFNLRKPSVQWSDTAEYFCAVISVTGNNRKLIWGLGTSLAVNP
Vbeta: DGGITQSPKYLFRKEGQNVTLSCEQNLNHDAMYWYRQDPGQGLRLIYYSQIVNDFQKGDIAEGYSVSREKKESFPLTVTSAQKNPTAFYLCASSRTAMNTEAFFGQGTRLTVV
- binding result [3]: recognises

Now from value to binder:

- binding result [4]: recognises
B6: TMPRSS2::ERG TCR-1 (TCR, V domains shown)
Valpha: AQKVTQAQTEISVVEKEDVTLDCVYETRDTTYYLFWYKQPPSGELVFLIRRNSFDEQNEISGRYSWNFQKSTSSFNFTITASQVVDSAVYFCALSEARVFNGANSKLTFGKGITLSVRP
Vbeta: EAGVTQFPSHSVIEKGQTVTLRCDPISGHDNLYWYRRVMGKEIKFLLHFVKESKQDESGMPNNRFLAERTGGTYSTLKVQPAELEDSGVYFCASSQADSPLHFGNGTRLTVT

- binding result [5]: recognises
B7: BTK TCR-1 (TCR, V domains shown)
Valpha: QKEVEQNSGPLSVPEGAIASLNCTYSDRGSQSFFWYRQYSGKSPELIMFIYSNGDKEDGRFTAQLNKASQYVSLLIRDSQPSDSATYLCAVNDYGGSQGNLIFGKGTKLSVKP
Vbeta: DTGVSQNPRHKITKRGQNVTFRCDPISEHNRLYWYRQTLGQGPEFLTYFQNEAQLEKSRLLSDRFSAERPKGSFSTLEIQRTEQGDSAMYLCASSFGPDEKLFFGSGTQLSVL

- binding result [5]: recognises
B8: BTK TCR-2 (TCR, V domains shown)
Valpha: QKEVEQNSGPLSVPEGAIASLNCTYSDRGSQSFFWYRQYSGKSPELIMFIYSNGDKEDGRFTAQLNKASQYVSLLIRDSQPSDSATYLCAVNEGDSSYKLIFGSGTRLLVRP
Vbeta: DSGVTQTPKHLITATGQRVTLRCSPRSGDLSVYWYQQSLDQGLQFLIQYYNGEERAKGNILERFSAQQFPDLHSELNLSSLELGDSALYFCASSPGANEKLFFGSGTQLSVL
